Here are results for 1 substance from publication PMC12702194.

In the assay the target is Fibronectin 1 (FN1) (human (endogenous in C28/I2)). The experiment in a line: proximity ligation; Duolink in situ PLA on decellularized, fixed matrix of C28/I2 WT cells cultured for 72 h; primary antibodies mouse anti-fibronectin or mouse anti-Col II with rabbit anti-ERp57; controls: matrix of ERp57 KO cells and omitted primary antibodies; some cultures incubated with 10 mM DTT for 15 min at 37°C before decellularization (PLA signal significantly decreased).
Sequence of Fibronectin 1 (FN1) (human (endogenous in C28/I2)) (P02751 32-2477): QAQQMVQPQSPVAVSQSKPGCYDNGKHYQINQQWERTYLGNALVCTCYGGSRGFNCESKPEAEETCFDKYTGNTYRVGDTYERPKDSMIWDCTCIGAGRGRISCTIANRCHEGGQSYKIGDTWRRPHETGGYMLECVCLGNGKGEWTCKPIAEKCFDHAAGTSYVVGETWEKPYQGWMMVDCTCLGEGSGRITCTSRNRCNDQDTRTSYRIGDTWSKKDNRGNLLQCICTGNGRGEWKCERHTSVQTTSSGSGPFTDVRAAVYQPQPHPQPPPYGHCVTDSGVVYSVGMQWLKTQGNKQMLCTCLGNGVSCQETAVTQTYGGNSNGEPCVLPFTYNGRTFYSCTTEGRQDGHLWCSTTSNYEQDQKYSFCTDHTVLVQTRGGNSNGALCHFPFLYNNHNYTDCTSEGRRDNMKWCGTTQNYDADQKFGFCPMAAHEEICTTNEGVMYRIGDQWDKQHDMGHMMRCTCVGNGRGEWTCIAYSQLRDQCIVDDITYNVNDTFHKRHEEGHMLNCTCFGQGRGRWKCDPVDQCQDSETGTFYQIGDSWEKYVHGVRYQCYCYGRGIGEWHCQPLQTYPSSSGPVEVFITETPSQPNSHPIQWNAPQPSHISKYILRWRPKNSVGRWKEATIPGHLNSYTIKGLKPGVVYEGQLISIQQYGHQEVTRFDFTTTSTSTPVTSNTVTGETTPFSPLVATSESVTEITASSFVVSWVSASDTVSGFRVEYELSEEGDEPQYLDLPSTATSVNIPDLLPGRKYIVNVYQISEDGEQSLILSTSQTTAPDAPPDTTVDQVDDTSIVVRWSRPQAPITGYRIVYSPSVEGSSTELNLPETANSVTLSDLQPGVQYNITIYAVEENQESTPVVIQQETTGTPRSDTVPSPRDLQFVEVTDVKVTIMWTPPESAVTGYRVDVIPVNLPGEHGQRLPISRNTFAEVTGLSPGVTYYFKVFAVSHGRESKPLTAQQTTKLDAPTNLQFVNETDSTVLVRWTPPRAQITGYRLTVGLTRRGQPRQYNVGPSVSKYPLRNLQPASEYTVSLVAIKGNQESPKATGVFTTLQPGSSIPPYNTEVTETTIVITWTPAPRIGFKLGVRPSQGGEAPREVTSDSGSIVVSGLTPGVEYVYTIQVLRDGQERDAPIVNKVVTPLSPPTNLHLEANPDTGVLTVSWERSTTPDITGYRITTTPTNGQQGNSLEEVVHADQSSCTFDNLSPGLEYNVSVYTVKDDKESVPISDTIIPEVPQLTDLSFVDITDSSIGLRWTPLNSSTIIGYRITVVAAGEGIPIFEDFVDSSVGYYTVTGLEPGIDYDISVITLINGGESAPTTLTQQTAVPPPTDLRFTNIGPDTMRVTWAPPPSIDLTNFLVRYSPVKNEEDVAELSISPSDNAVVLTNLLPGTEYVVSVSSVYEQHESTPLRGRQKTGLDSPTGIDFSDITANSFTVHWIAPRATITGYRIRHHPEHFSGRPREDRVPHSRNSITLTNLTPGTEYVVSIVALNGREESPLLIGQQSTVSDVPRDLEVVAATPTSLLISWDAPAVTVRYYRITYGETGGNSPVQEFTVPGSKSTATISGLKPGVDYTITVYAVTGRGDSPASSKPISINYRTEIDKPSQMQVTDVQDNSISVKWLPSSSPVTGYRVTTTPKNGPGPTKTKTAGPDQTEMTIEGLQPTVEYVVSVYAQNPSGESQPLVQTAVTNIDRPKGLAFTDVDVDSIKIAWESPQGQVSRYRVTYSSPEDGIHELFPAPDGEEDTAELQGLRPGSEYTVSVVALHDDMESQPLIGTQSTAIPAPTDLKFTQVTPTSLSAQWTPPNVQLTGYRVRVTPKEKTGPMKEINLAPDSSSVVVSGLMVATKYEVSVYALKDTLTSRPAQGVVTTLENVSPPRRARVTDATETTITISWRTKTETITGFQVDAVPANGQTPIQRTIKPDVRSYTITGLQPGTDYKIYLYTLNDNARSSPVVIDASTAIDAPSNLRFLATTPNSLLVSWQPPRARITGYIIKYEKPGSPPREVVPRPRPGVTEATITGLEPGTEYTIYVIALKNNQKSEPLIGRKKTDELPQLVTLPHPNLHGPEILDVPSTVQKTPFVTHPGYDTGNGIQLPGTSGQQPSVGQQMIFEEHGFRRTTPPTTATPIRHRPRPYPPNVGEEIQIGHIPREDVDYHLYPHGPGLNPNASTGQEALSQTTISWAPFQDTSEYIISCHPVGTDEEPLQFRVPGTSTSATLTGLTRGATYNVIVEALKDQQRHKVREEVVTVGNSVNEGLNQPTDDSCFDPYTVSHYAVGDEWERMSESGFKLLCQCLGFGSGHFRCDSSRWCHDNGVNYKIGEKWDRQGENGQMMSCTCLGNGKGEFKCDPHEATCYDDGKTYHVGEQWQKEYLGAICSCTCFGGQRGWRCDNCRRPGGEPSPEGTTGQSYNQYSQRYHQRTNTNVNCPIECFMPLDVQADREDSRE

The substance “endoplasmic reticulum protein 57 (ERp57) (from UniProt P30101 25-505) (enzyme)” came in with a PLA mean staining intensity of 0.284.
